This passage reports binding signal results from article PMC10681739, “High-throughput data and modeling reveal insights into the mechanisms of cooperative DNA-binding by transcription factor proteins”.

In this data set the target is T1, ETS1 (Homo sapiens, UniProt P14921).
T1 sequence: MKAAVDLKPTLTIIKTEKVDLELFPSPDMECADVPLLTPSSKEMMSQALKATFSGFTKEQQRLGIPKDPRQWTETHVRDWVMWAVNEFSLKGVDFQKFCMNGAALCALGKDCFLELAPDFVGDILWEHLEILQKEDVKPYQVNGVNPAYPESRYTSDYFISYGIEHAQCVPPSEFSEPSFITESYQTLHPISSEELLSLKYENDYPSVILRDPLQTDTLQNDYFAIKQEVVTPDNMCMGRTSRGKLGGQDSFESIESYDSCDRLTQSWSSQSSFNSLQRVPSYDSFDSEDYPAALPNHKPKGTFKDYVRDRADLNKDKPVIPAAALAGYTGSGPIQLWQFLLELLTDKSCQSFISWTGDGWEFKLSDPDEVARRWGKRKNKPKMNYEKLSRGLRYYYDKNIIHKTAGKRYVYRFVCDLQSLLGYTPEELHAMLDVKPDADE
The data set is described as follows: gcPBM; 1 nM ETS1. To be noted: tags: N-terminal GST (pDEST15), kept (PMC6008103); label: surface-attached array probe.

B1: Table S2 C row 93 (dsDNA)
DNA 1: ATGCTGTCAAAAACTACCACAGACTGATTGGCTTAA
DNA 2: TTAAGCCAATCAGTCTGTGGTAGTTTTTGACAGCAT
For B1, the binding signal was 399 PBM fluorescence, median of replicate spots.

B2: Table S2 C row 33 (dsDNA)
DNA 1: ATCTCAGTTAAGCAGACCACACTTTACGTTCTAGTT
DNA 2: AACTAGAACGTAAAGTGTGGTCTGCTTAACTGAGAT
For the molecule B2, the binding signal is 393 PBM fluorescence, median of replicate spots.

B3: Table S2 C row 125 (dsDNA)
DNA 1: CATTTCAGTAGACTCACCACAAGGTTGTGGCCAGAA
DNA 2: TTCTGGCCACAACCTTGTGGTGAGTCTACTGAAATG
With B3, the binding signal is 399 PBM fluorescence, median of replicate spots.

B4: Table S2 C row 23 (dsDNA)
DNA 1: GCTTTGCACAGCTTTGCCACAAAGCCCAGTCTGTGT
DNA 2: ACACAGACTGGGCTTTGTGGCAAAGCTGTGCAAAGC
Consider B4, for which the binding signal was 399 PBM fluorescence, median of replicate spots.

B5: Table S2 C row 191 (dsDNA)
DNA 1: CCAAAAAGAGAGGCAGCCACAAGATCTTCTAAAAGG
DNA 2: CCTTTTAGAAGATCTTGTGGCTGCCTCTCTTTTTGG
With B5, the binding signal was 380 PBM fluorescence, median of replicate spots.

B6: Table S2 C row 48 (dsDNA)
DNA 1: TTCAGAGTCAGATCTACCACACACAGCCCAGGAGCC
DNA 2: GGCTCCTGGGCTGTGTGTGGTAGATCTGACTCTGAA
Consider B6, for which the binding signal was 393 PBM fluorescence, median of replicate spots.

B7: Table S2 C row 85 (dsDNA)
DNA 1: TGTAATCTTTCTTAATGTGGTTAAATTCAAGTTATT
DNA 2: AATAACTTGAATTTAACCACATTAAGAAAGATTACA
On to B7, for which the binding signal is 407 PBM fluorescence, median of replicate spots.

B8: Table S2 C row 74 (dsDNA)
DNA 1: GTTAAAACAAAGCAAGCCACAGTGTGTGTCCACAGA
DNA 2: TCTGTGGACACACACTGTGGCTTGCTTTGTTTTAAC
Regarding B8, the binding signal was 382 PBM fluorescence, median of replicate spots.

B9: Table S2 B row 665 (dsDNA)
DNA 1: CTCCGTGCCACTACAGCCACTTCCTGCCTTGAAAAC
DNA 2: GTTTTCAAGGCAGGAAGTGGCTGTAGTGGCACGGAG
As to B9, the binding signal is 13300 PBM fluorescence, median of replicate spots.

B10: Table S2 C row 69 (dsDNA)
DNA 1: CTGGCAAAGCAGAAGTGTGGTTTCAGAGTCTCCCTC
DNA 2: GAGGGAGACTCTGAAACCACACTTCTGCTTTGCCAG
Take B10: the binding signal is 405 PBM fluorescence, median of replicate spots.

B11: Table S2 C row 20 (dsDNA)
DNA 1: TCTCCTCTGAGGGCCTGTGGGCAATGAGCAGAAAAG
DNA 2: CTTTTCTGCTCATTGCCCACAGGCCCTCAGAGGAGA
In the case of B11, the binding signal is 389 PBM fluorescence, median of replicate spots.

B12: Table S2 C row 192 (dsDNA)
DNA 1: CAAGGTGGCAGTGATTGTGGCCGGCCACCTATCTGA
DNA 2: TCAGATAGGTGGCCGGCCACAATCACTGCCACCTTG
As for B12, the binding signal was 408 PBM fluorescence, median of replicate spots.

B13: Table S2 C row 46 (dsDNA)
DNA 1: GGTTTACAGCTCATTTGCGGCAGAATCAAAATGGCT
DNA 2: AGCCATTTTGATTCTGCCGCAAATGAGCTGTAAACC
As for B13, the binding signal was 392 PBM fluorescence, median of replicate spots.

B14: Table S2 B row 2766 (dsDNA)
DNA 1: TTTGCAAATCCAGAGCGGAGACTTCCGGTGGCCTAG
DNA 2: CTAGGCCACCGGAAGTCTCCGCTCTGGATTTGCAAA
On to B14, for which the binding signal was 14400 PBM fluorescence, median of replicate spots.

B15: Table S2 C row 175 (dsDNA)
DNA 1: CATCTCAAAGCCTCCTGTGGGTGGAGATGGAATGTG
DNA 2: CACATTCCATCTCCACCCACAGGAGGCTTTGAGATG
For B15, the binding signal was 414 PBM fluorescence, median of replicate spots.

B16: Table S2 C row 6 (dsDNA)
DNA 1: TAAGCCCCGCGTGCCTGTGGGTATTTGAAAGCTGAA
DNA 2: TTCAGCTTTCAAATACCCACAGGCACGCGGGGCTTA
Consider B16, for which the binding signal is 385 PBM fluorescence, median of replicate spots.

B17: Table S2 C row 159 (dsDNA)
DNA 1: GGAGAGGAGAAAATGCCCACAGGGTACATGGAAAGC
DNA 2: GCTTTCCATGTACCCTGTGGGCATTTTCTCCTCTCC
Turning to B17, the binding signal is 409 PBM fluorescence, median of replicate spots.

B18: Table S2 B row 1078 (dsDNA)
DNA 1: TGCAGCTTCCTGTCTGAGGCTTTTTGGTCCTTTCAT
DNA 2: ATGAAAGGACCAAAAAGCCTCAGACAGGAAGCTGCA
For the molecule B18, the binding signal is 12900 PBM fluorescence, median of replicate spots.

B19: Table S2 B row 672 (dsDNA)
DNA 1: GGCTTCCGGCGGGGTACCCTCCTCTGTAGGCGGGGC
DNA 2: GCCCCGCCTACAGAGGAGGGTACCCCGCCGGAAGCC
Take B19: the binding signal was 13700 PBM fluorescence, median of replicate spots.

B20: Table S2 C row 123 (dsDNA)
DNA 1: ATGCAGAAGGAATGCTGTGGTAGACAGCATTCCTTT
DNA 2: AAAGGAATGCTGTCTACCACAGCATTCCTTCTGCAT
B20: the binding signal is 407 PBM fluorescence, median of replicate spots.

B21: Table S2 C row 115 (dsDNA)
DNA 1: TGGGGCTTCTCGTTGGCCACAAGTTCAATTTGAGCC
DNA 2: GGCTCAAATTGAACTTGTGGCCAACGAGAAGCCCCA
On to B21, for which the binding signal was 381 PBM fluorescence, median of replicate spots.

B22: Table S2 C row 136 (dsDNA)
DNA 1: CAAATGAGGTGCCAAGCCACAAAAAGCATTTGCGTC
DNA 2: GACGCAAATGCTTTTTGTGGCTTGGCACCTCATTTG
With B22, the binding signal is 388 PBM fluorescence, median of replicate spots.

B23: Table S2 C row 88 (dsDNA)
DNA 1: TGAGGCTCAGTGCTGACCACATTCAAATGACTAGAC
DNA 2: GTCTAGTCATTTGAATGTGGTCAGCACTGAGCCTCA
As to B23, the binding signal was 389 PBM fluorescence, median of replicate spots.

B24: Table S2 C row 58 (dsDNA)
DNA 1: CATCTGCAGACACTGTGTGGTTTCCAGGTTCCCGAG
DNA 2: CTCGGGAACCTGGAAACCACACAGTGTCTGCAGATG
On to B24, for which the binding signal is 406 PBM fluorescence, median of replicate spots.

B25: Table S2 C row 158 (dsDNA)
DNA 1: AGGTATTAAACAGCAACCGCATTGCCAAGCACTGTG
DNA 2: CACAGTGCTTGGCAATGCGGTTGCTGTTTAATACCT
For B25, the binding signal is 391 PBM fluorescence, median of replicate spots.

B26: Table S2 C row 60 (dsDNA)
DNA 1: AGACTCAGGTGGTAAACCGCAGGCCATTTACATACC
DNA 2: GGTATGTAAATGGCCTGCGGTTTACCACCTGAGTCT
For the molecule B26, the binding signal is 408 PBM fluorescence, median of replicate spots.

B27: Table S2 C row 32 (dsDNA)
DNA 1: TAGTTGTATGTGGAAACCACAAAACTGAGTCATAAA
DNA 2: TTTATGACTCAGTTTTGTGGTTTCCACATACAACTA
B27: the binding signal was 395 PBM fluorescence, median of replicate spots.

B28: Table S2 C row 47 (dsDNA)
DNA 1: CCTACAAATTCCAGCTGTGGTCAGCTGGTGAGCTCT
DNA 2: AGAGCTCACCAGCTGACCACAGCTGGAATTTGTAGG
B28: the binding signal is 408 PBM fluorescence, median of replicate spots.

B29: Table S2 C row 149 (dsDNA)
DNA 1: TTGGCTTCGGTTCTAACCTCAGAGACTTCTCTAAAT
DNA 2: ATTTAGAGAAGTCTCTGAGGTTAGAACCGAAGCCAA
Regarding B29, the binding signal is 389 PBM fluorescence, median of replicate spots.

B30: Table S2 C row 14 (dsDNA)
DNA 1: CTTGCCTAAGACATGCCCACAGCTGCACAGATAAGA
DNA 2: TCTTATCTGTGCAGCTGTGGGCATGTCTTAGGCAAG
Turning to B30, the binding signal is 383 PBM fluorescence, median of replicate spots.

B31: Table S2 C row 155 (dsDNA)
DNA 1: CTCTTTGGCCTTGTCTGTGGTTCTACCAAATCCCAT
DNA 2: ATGGGATTTGGTAGAACCACAGACAAGGCCAAAGAG
For B31, the binding signal was 414 PBM fluorescence, median of replicate spots.

B32: Table S2 C row 100 (dsDNA)
DNA 1: AGATGAATCACAGAGACCACACATGGAGACCCATCT
DNA 2: AGATGGGTCTCCATGTGTGGTCTCTGTGATTCATCT
Regarding B32, the binding signal is 403 PBM fluorescence, median of replicate spots.

B33: Table S2 C row 128 (dsDNA)
DNA 1: AAGATATGGGCTACTTGTGGTTTACTCTGTCTGCTA
DNA 2: TAGCAGACAGAGTAAACCACAAGTAGCCCATATCTT
On to B33, for which the binding signal is 392 PBM fluorescence, median of replicate spots.

B34: Table S2 C row 72 (dsDNA)
DNA 1: ACTACCTTCTTGGTAACCACAAGTCTCAGAGGTACT
DNA 2: AGTACCTCTGAGACTTGTGGTTACCAAGAAGGTAGT
With B34, the binding signal is 394 PBM fluorescence, median of replicate spots.

B35: Table S2 C row 2 (dsDNA)
DNA 1: GTGATGCCGACAGGCCGTGGTTTCTGAGAAACACCA
DNA 2: TGGTGTTTCTCAGAAACCACGGCCTGTCGGCATCAC
On to B35, for which the binding signal was 392 PBM fluorescence, median of replicate spots.

B36: Table S2 C row 181 (dsDNA)
DNA 1: CACAGGCAGTTCCAGACCGCAGCCTTCCAGGGCCCT
DNA 2: AGGGCCCTGGAAGGCTGCGGTCTGGAACTGCCTGTG
With B36, the binding signal was 391 PBM fluorescence, median of replicate spots.

B37: Table S2 C row 134 (dsDNA)
DNA 1: AAGTCTACAGCTCTTTGAGGTTCATGTGTGACTCTA
DNA 2: TAGAGTCACACATGAACCTCAAAGAGCTGTAGACTT
As to B37, the binding signal was 394 PBM fluorescence, median of replicate spots.

B38: Table S2 C row 112 (dsDNA)
DNA 1: ACTGTCAAACATTCGACCACAATCTCTGAGGCTGGG
DNA 2: CCCAGCCTCAGAGATTGTGGTCGAATGTTTGACAGT
Turning to B38, the binding signal is 409 PBM fluorescence, median of replicate spots.

B39: Table S2 C row 133 (dsDNA)
DNA 1: TTGTAGGGATGACTGACCACAAAAGACAGTGACTCA
DNA 2: TGAGTCACTGTCTTTTGTGGTCAGTCATCCCTACAA
For B39, the binding signal was 398 PBM fluorescence, median of replicate spots.
